# According to patent publication US20240010724A1 (Amgen, published 2024):
# T1: muCDH19(44-139)::huCDH19(142-249):muCDH19(248-770) (human/mouse chimera)
# T1 construct: also called Hu EC2
# T1 chain: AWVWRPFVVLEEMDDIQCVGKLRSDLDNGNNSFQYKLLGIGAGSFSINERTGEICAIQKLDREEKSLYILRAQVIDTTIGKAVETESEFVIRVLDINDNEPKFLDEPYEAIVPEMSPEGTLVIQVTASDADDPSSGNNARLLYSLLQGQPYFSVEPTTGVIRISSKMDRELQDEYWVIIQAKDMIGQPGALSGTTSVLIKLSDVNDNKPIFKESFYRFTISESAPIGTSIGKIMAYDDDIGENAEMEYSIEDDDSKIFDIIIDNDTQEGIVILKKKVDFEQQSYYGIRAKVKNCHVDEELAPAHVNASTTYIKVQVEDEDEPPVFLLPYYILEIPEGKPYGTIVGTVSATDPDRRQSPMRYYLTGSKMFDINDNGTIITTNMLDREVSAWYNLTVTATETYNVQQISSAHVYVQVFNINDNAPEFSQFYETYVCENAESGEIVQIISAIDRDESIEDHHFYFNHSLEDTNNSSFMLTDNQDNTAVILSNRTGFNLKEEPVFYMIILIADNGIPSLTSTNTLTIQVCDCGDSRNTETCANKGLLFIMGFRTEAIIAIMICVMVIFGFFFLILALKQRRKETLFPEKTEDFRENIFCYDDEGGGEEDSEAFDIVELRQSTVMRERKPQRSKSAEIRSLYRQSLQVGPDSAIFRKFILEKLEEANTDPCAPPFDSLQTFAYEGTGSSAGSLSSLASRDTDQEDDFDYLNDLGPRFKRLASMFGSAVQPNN
# T2: muCDH19(44-362)::huCDH19(365-772) (human/mouse chimera)
# T2 construct: also called Hu EC4-5
# T2 chain: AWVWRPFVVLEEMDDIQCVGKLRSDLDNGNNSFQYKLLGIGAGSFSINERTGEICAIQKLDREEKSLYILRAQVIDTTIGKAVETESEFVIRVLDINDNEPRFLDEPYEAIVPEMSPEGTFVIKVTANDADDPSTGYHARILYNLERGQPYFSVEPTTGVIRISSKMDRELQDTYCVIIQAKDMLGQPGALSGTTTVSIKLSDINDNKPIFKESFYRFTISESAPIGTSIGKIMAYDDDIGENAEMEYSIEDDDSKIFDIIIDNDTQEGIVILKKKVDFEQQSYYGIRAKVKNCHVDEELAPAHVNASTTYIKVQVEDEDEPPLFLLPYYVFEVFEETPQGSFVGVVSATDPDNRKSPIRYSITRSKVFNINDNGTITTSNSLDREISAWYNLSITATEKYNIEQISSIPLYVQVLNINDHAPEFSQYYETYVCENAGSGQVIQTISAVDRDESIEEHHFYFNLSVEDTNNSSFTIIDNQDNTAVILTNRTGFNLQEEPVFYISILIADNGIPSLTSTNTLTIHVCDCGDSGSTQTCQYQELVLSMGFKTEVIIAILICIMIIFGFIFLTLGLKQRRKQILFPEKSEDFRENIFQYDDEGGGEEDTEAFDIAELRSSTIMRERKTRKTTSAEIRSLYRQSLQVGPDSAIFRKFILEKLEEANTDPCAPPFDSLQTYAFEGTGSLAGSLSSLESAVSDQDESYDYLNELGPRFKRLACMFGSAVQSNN
# T3: muCDH19(44-461)::huCDH19(464-772) (human/mouse chimera)
# T3 construct: also called Hu EC5
# T3 chain: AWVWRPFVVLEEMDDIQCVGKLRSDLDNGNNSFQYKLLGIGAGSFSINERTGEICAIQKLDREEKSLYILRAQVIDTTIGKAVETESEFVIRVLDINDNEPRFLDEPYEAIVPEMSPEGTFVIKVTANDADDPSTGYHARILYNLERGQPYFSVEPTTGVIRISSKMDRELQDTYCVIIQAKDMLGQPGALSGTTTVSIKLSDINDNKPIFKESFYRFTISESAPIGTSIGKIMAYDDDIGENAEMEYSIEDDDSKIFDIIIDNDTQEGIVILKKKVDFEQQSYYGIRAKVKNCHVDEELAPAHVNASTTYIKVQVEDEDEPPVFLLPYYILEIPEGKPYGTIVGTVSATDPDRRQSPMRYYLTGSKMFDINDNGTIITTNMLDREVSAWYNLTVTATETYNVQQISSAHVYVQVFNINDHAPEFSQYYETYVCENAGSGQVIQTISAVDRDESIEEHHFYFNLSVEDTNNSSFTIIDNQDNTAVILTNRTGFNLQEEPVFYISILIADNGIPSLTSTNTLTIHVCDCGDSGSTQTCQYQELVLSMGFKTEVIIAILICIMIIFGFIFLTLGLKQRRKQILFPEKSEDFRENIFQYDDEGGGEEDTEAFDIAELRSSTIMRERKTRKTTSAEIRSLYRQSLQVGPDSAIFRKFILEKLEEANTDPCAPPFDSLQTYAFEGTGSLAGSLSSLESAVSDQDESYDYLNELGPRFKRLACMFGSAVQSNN
# T4: muCDH19(44-770) (mouse)
# T4 construct: also called Mu EC1-5
# T4 chain: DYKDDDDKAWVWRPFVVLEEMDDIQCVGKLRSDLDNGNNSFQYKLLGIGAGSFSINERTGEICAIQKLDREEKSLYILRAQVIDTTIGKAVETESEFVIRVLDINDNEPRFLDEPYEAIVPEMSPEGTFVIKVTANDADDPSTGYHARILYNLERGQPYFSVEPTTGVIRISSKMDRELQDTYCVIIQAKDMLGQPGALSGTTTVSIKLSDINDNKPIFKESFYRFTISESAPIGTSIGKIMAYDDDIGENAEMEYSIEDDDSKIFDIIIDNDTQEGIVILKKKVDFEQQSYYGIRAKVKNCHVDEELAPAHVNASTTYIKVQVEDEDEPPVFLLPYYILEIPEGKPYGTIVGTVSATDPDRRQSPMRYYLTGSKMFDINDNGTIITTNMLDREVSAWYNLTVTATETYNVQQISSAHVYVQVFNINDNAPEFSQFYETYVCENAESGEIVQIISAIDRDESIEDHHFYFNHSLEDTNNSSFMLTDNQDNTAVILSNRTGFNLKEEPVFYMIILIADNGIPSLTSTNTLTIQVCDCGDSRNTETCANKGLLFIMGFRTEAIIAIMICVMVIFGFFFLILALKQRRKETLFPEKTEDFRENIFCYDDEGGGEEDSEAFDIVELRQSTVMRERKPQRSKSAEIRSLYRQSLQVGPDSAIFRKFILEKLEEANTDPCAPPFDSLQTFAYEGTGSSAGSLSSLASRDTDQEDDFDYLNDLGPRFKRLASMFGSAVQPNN
# Assays:
# Test in all cases: flow cytometry, transfected 293T cells
# [1] = target: T5, huCDH19(44-141)::muCDH19(140-770) (human/mouse chimera)
# T5 construct: also called Hu EC1
# [2] = target: T6, huCDH19(44-249)::muCDH19(248-770) (human/mouse chimera)
# T6 construct: also called Hu EC1-2
# [3] = target: T7, muCDH19(44-139)::huCDH19(142-364)::muCDH19(363-770) (human/mouse chimera)
# T7 construct: also called Hu EC2-3
# [4] = target: T8, muCDH19(44-247)::huCDH19(250-364)::muCDH19(363-770) (human/mouse chimera)
# T8 construct: also called Hu EC3
# [5] = target: T1, muCDH19(44-139)::huCDH19(142-249):muCDH1 …
# [6] = target: T2, muCDH19(44-362)::huCDH19(365-772)
# [7] = target: T3, muCDH19(44-461)::huCDH19(464-772)
# huCDH19(44-772) = target: T9, huCDH19(44-772) (human, UniProt Q9H159 44-772)
# T9 construct: also called Hu EC1-5
# muCDH19(44-770) = target: T4, muCDH19(44-770)
Binder,binding result [1],binding result [2],binding result [3],binding result [4],binding result [5],binding result [6],binding result [7],binding result (huCDH19(44-772)),binding result (muCDH19(44-770))
"anti-CDH19 antibody 13589 (clone 4A9) (antibody, human IgG1, lambda, V domains shown, fully human XenoMouse monoclonal antibody; bin 1; also called Alexa647-labelled 4A9) VH: QVQLQESGPGLVKPSETLSLTCTVSGGSISGYYWSWIRQPPGKGLEWFAYFSYSGSTNYNPSLKSRVTLSVDTSKNQFSLKLSSVTAADTAVYYCARNWAFHFDFWGQGTLVTVSS VL: QSVLTQPPSVSGAPGQRVTISCTGSSSNIGTGYAVHWYQQFPGTAPKLLIYGNNNRPSGVPDRFSGSKSGTSASLAITGLQAEDEADYYCQSYDSRLSGWVFGGGTKLTVLG",binds,binds,–,–,–,–,–,–,–
"anti-CDH19 antibody 13880 (clone 25F8) (antibody, human IgG1, lambda, V domains shown, fully human XenoMouse monoclonal antibody; bin 2) VH: QVQLVQSGAEVKKPGASVKVSCKASGYTFTSYYIHWVRQAPGQGLEWMGIINPSGGSTRYAQKFQGRVTMTRDTSTSTVFMELSSLRSEDTAVYYCARGGIQLWLHFDYWGQGTLVTVSS VL: not shown",binds,binds,–,–,–,–,–,–,–
"anti-CDH19 antibody 13882 (clone 26D1) (antibody, human IgG1, lambda, V domains shown, fully human XenoMouse monoclonal antibody; bin 2) VH: QVQLVQSGAEVKKPGASVKVSCKASRYTFTSYYMSWVRQAPGQGLEWMGIIHPSGGDTTYAQKFQGRVTMTGDTSTSTVYMELSSLRSEDTAVYYCARGGIKLWLHFDYWGQGTLVTVSS VL: not shown",binds,binds,–,–,–,–,–,–,–

# Further lines, results first:
binding result [1],binding result [2],binding result [3],binding result [4],binding result [5],binding result [6],binding result [7],binding result (huCDH19(44-772)),binding result (muCDH19(44-770)),Binder
–,–,binds,binds,–,–,–,–,–,"anti-CDH19 antibody 13590 (clone 4B10) (antibody, V domains shown, fully human XenoMouse monoclonal antibody; bin 4) VH: QVQLVESGGGVVQPGRSLRLSCAASGFTFSSYDMHWVRQAPGKGLEWVAVISYDGTNEYYADSVKGRFTISRDTSKNTLYLQMNSLRAEDTAVYYCARERYFDWSFDYWGQGTLVSVSS VL: EIVLTQSPGTLSLSPGERATLSCRASQSVSNTYLAWYHQRPGQAPRLLIYGASSRATGIPDRFSGSGSGTDFALTISSLEPEDFAVYYCQQYSNSWTFGQGTKVEIKR"
binds,binds,binds,binds,binds,binds,binds,–,–,"anti-CDH19 antibody 14039 (antibody, human IgG1, lambda, V domains shown) VH: QVQLVESGGGVVQPGGSLRLSCAASGFTFSSYGMHWVRQAPGKGLEWVAFIWYEGSNKYYAESVKDRFTISRDNSKNTLYLQMNSLRAEDTAVYYCARRAGIIGTIGYYYGMDVWGQGTTVTVSS VL: SYELTQPPSVSVSPGQTASITCSGDRLGEKYTSWYQQRPGQSPLLVIYQDTKRPSGIPERFSGSNSGNTATLTISGTQAMDEADYYCQAWESSTVVFGGGTKLTVLG"
binds,binds,binds,binds,binds,binds,binds,binds,binds,"anti-CDH19 antibody 14304 (antibody, V domains shown) VH: QVQLVESGGGVVQPGGSLRLSCAASGFTFSSYGMHWVRQAPGKGLEWVAFIWYDGSNKYYADSVKDRFTISRDNSKNTLYLQMKSLRAEDTAVYYCARRAGIIGTIGYYYGMDVWGQGTTVTVSS VL: SYELTQPPSVSVSPGQTASITCSGDRLGEKYVSWYQQKPGQSPILVIYQDNKWPSGIPERFSGSNSGNTATLTISGTQAMDEADYYCQAWDSSTVVFGGGTKLTVLG"
